Measured values from publication PMC2605612.

Molecular target: T1, Myc-hFis1[1-152] (human), Q9Y3D6
T1 chain: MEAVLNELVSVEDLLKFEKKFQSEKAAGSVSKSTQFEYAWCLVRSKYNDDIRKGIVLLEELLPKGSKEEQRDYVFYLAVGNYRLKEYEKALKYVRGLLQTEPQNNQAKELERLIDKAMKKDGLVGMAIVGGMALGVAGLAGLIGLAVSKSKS
Test: cross-linking
Conditions: remark: other sources report otherwise

B1: Myc-hFis1[1-152], Q9Y3D6 1-152 (natural protein)
chain: T1 chain
  stoichiometry N: 2
